According to patent publication US20210388110A1 (published 2021):
Substitutions are numbered along the chain they refer to. Blank lines part the entries; values can stand above or below the binder they belong to.

Target: T1, soluble human GPC3 (human, UniProt P51654 25-563, limits assumed)
T1 construct: soluble human GPC3 as analyte; also called glypican 3
Assay: SPR (Biacore), soluble human GPC3

T1 sequence (P51654 other isoform, or with tags, fused parts or gaps limits assumed, form in doubt): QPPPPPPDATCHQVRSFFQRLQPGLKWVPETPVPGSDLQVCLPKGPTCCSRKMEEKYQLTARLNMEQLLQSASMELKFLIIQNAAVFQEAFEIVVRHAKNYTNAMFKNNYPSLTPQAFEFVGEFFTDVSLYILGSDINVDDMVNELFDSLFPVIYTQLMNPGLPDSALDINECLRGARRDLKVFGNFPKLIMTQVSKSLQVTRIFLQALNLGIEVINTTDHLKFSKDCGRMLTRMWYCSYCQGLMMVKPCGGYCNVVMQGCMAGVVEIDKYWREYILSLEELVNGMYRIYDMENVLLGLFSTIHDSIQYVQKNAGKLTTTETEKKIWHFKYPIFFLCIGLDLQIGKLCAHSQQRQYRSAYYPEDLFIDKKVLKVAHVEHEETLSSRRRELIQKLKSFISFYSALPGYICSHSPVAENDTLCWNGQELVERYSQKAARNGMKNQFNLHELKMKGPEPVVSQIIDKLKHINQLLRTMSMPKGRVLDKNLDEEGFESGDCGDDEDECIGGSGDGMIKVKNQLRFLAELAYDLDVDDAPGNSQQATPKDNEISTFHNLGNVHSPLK

Kd: 0.00361 nM
B1: GCH054-G1dh/none-Hi-Kn010G3/L0249-k0 (antibody, human IgG1, kappa)
heavy: not shown
chain: EPKSSDKTHTCPPCPAPELLGGPSVFLFPPKPKDTLMISRTPEVTCVVVDVSHEDPEVKFNWYVDGVEVHNAKTKPREEQYNSTYRVVSVLTVLHQDWLNGKEYKCKVSNKALPAPIEKTISKAKGQPREPQVCTLPPSRDELTKNQVSLWCLVKGFYPSDIAVEWESNGQPENNYKTTPPVLDSDGSFFLYSKLTVDKSRWQQGNVFSCSVMHEALHNRYTQKSLSLSP
light: DIVMTQSPLSLPVTPGEPASISCRPSQSPVHSNRNTYIQWYQQKPGQAPRLLIYKVSNRFSGVPDRFSGSGSGTDFTLKISRVEAEDVGVYYCSQGTQVPYTFGQGTKLEIKRTVAAPSVFIFPPSDEQLKSGTASVVCLLNNFYPREAKVQWKVDNALQSGNSQESVTEQDSKDSTYSLSSTLTLSKADYEKHKVYACEVTHQGLSSPVTKSFNRGEC
notes: single-arm (one Fab)

Kd: 1.83 nM
B2: GCH057-G1dh/none-Hi-Kn010G3/L0215-k0 (antibody, human IgG1, kappa)
heavy: not shown
chain: B1 chain
light: B1 light with P25S, S28P, Q39H, S94G
notes: single-arm (one Fab)

Kd: 0.00185 nM
B3: GCH057-G1dh/none-Hi-Kn010G3/L0222-k0 (antibody, human IgG1, kappa)
heavy: not shown
chain: B1 chain
light: B1 light with P25S, S94Y
notes: single-arm (one Fab)

Kd: 0.614 nM
B4: GCH055-G1dh/none-Hi-Kn010G3/L0212-k0 (antibody, human IgG1, kappa)
heavy: not shown
chain: B1 chain
light: B1 light with I38L, Q39H, S94Y
notes: single-arm (one Fab)

Kd: 3.6 nM
B5: GCH094-G1dh/none-Hi-Kn010G3/L0270-k0 (antibody, human IgG1, kappa)
heavy: not shown
chain: B1 chain
light: B1 light with P25S, P29L, N35Q, I38L, Q39H, S94G
notes: single-arm (one Fab)

Kd: 3.73 nM
B6: GCH062-G1dh/none-Hi-Kn010G3/L0000-k0 (antibody, human IgG1, kappa)
heavy: not shown
chain: B1 chain
light: B1 light with P25S, P29L, I38L, Q39H, S94G
notes: single-arm (one Fab)

Kd: 1.34 nM
B7: GCH060-G1dh/none-Hi-Kn010G3/L0200-k0 (antibody, human IgG1, kappa)
heavy: not shown
chain: B1 chain
light: B1 light with I38L, Q39H, S94G
notes: single-arm (one Fab)

Kd: 1.16 nM
B8: GCH056-G1dh/none-Hi-Kn010G3/L0201-k0 (antibody, human IgG1, kappa)
heavy: not shown
chain: B1 chain
light: B1 light with P25S, S28P, I38L, Q39H, S94G
notes: single-arm (one Fab)

Kd: 0.0119 nM
B9: GCH056-G1dh/none-Hi-Kn010G3/L0262-k0 (antibody, human IgG1, kappa)
heavy: not shown
chain: B1 chain
light: B1 light with P25S, S28P, I38L, Q39H, S94A
notes: single-arm (one Fab)

Kd: 0.763 nM
B10: GCH054-G1dh/none-Hi-Kn010G3/TR01L016-k0 (antibody, human IgG1, kappa)
heavy: not shown
chain: B1 chain
light: B1 light with P25S, I38L, Q39H, Q42L, A48S, R50Q, S94Y
notes: single-arm (one Fab)

Kd: 2.45 nM
B11: GCH054-G1dh/none-Hi-Kn010G3/TR01L015-k0 (antibody, human IgG1, kappa)
heavy: not shown
chain: B1 chain
light: B1 light with P25S, I38L, Q39H, Q42L, A48S, R50Q, S94G
notes: single-arm (one Fab)

Kd: 4.14 nM
B12: GCH064-G1dh/none-Hi-Kn010G3/L0000-k0 (antibody, human IgG1, kappa)
heavy: not shown
chain: B1 chain
light: B1 light with P25S, P29L, I38L, Q39H, S94G
notes: single-arm (one Fab)

Kd: 0.871 nM
B13: GCH054-G1dh/none-Hi-Kn010G3/TR01L019-k0 (antibody, human IgG1, kappa)
heavy: not shown
chain: B1 chain
light: B1 light with R24Q, P25A, Q27E, I38L, Q39H, Q42L, A48S, R50Q, S94Y
notes: single-arm (one Fab)

Kd: 2 nM
B14: GCH073-G1dh/none-Hi-Kn010G3/L0000-k0 (antibody, human IgG1, kappa)
heavy: not shown
chain: B1 chain
light: B1 light with P25S, P29L, I38L, Q39H, S94G
notes: single-arm (one Fab)

Kd: 1.52 nM
B15: GCH055-G1dh/none-Hi-Kn010G3/L0215-k0 (antibody, human IgG1, kappa)
heavy: not shown
chain: B1 chain
light: B1 light with P25S, S28P, Q39H, S94G
notes: single-arm (one Fab)

Kd: 0.0774 nM
B16: GCH065-G1dh/none-Hi-Kn010G3/L0201-k0 (antibody, human IgG1, kappa)
heavy: not shown
chain: B1 chain
light: B1 light with P25S, S28P, I38L, Q39H, S94G
notes: single-arm (one Fab)

Kd: 4.29 nM
B17: GCH066-G1dh/none-Hi-Kn010G3/L0000-k0 (antibody, human IgG1, kappa)
heavy: not shown
chain: B1 chain
light: B1 light with P25S, P29L, I38L, Q39H, S94G
notes: single-arm (one Fab)

Kd: 0.00412 nM
B18: GCH094-G1dh/none-Hi-Kn010G3/L0246-k0 (antibody, human IgG1, kappa)
heavy: not shown
chain: B1 chain
light: B1 light with P25S
notes: single-arm (one Fab)

Kd: 0.393 nM
B19: GCH065-G1dh/none-Hi-Kn010G3/L0272-k0 (antibody, human IgG1, kappa)
heavy: not shown
chain: B1 chain
light: B1 light with P25S, S28P, P29L, N35Q, I38L, Q39H, S94G
notes: single-arm (one Fab)

Kd: 0.035 nM
B20: GCH073-G1dh/none-Hi-Kn010G3/L0201-k0 (antibody, human IgG1, kappa)
heavy: not shown
chain: B1 chain
light: B1 light with P25S, S28P, I38L, Q39H, S94G
notes: single-arm (one Fab)

Kd: 1.17 nM
B21: GCH094-G1dh/none-Hi-Kn010G3/L0201-k0 (antibody, human IgG1, kappa)
heavy: not shown
chain: B1 chain
light: B1 light with P25S, S28P, I38L, Q39H, S94G
notes: single-arm (one Fab)

Kd: 1.13 nM
B22: GCH055-G1dh/none-Hi-Kn010G3/L0200-k0 (antibody, human IgG1, kappa)
heavy: not shown
chain: B1 chain
light: B1 light with I38L, Q39H, S94G
notes: single-arm (one Fab)

Kd: 1.59 nM
B23: GCH056-G1dh/none-Hi-Kn010G3/L0215-k0 (antibody, human IgG1, kappa)
heavy: not shown
chain: B1 chain
light: B1 light with P25S, S28P, Q39H, S94G
notes: single-arm (one Fab)

Kd: 0.884 nM
B24: GCH065-G1dh/none-Hi-Kn010G3/L0011-k0 (antibody, human IgG1, kappa)
heavy: not shown
chain: B1 chain
light: B1 light with P25S, S28P, P29L, I38L, Q39H, S94G
notes: single-arm (one Fab)

Kd: 2.59 nM
B25: GCH054-G1dh/none-Hi-Kn010G3/TR01L018-k0 (antibody, human IgG1, kappa)
heavy: not shown
chain: B1 chain
light: B1 light with R24Q, P25A, Q27E, I38L, Q39H, Q42L, A48S, R50Q, S94G
notes: single-arm (one Fab)

Kd: 0.692 nM
B26: GCH094-G1dh/none-Hi-Kn010G3/L0271-k0 (antibody, human IgG1, kappa)
heavy: not shown
chain: B1 chain
light: B1 light with P25S, S28P, N35Q, I38L, Q39H, S94G
notes: single-arm (one Fab)

Kd: 1.41 nM
B27: GCH065-G1dh/none-Hi-Kn010G3/L0000-k0 (antibody, human IgG1, kappa)
heavy: not shown
chain: B1 chain
light: B1 light with P25S, P29L, I38L, Q39H, S94G
notes: single-arm (one Fab)

Kd: 0.000642 nM
B28: GCH060-G1dh/none-Hi-Kn010G3/L0222-k0 (antibody, human IgG1, kappa)
heavy: not shown
chain: B1 chain
light: B1 light with P25S, S94Y
notes: single-arm (one Fab)

Kd: 3.88 nM
B29: GCH094-G1dh/none-Hi-Kn010G3/L0011-k0 (antibody, human IgG1, kappa)
heavy: not shown
chain: B1 chain
light: B1 light with P25S, S28P, P29L, I38L, Q39H, S94G
notes: single-arm (one Fab)

Kd: 0.0118 nM
B30: GCH065-G1dh/none-Hi-Kn010G3/L0262-k0 (antibody, human IgG1, kappa)
heavy: not shown
chain: B1 chain
light: B1 light with P25S, S28P, I38L, Q39H, S94A
notes: single-arm (one Fab)

Kd: 0.000525 nM
B31: GCH054-G1dh/none-Hi-Kn010G3/L0262-k0 (antibody, human IgG1, kappa)
heavy: not shown
chain: B1 chain
light: B1 light with P25S, S28P, I38L, Q39H, S94A
notes: single-arm (one Fab)

Kd: 0.0039 nM
B32: GCH055-G1dh/none-Hi-Kn010G3/L0222-k0 (antibody, human IgG1, kappa)
heavy: not shown
chain: B1 chain
light: B1 light with P25S, S94Y
notes: single-arm (one Fab)

Kd: 0.91 nM
B33: GCH073-G1dh/none-Hi-Kn010G3/L0011-k0 (antibody, human IgG1, kappa)
heavy: not shown
chain: B1 chain
light: B1 light with P25S, S28P, P29L, I38L, Q39H, S94G
notes: single-arm (one Fab)
